From patent US20250382344A1, “Soluble GLP1/GIP/NPY2 Receptor Triple Agonists” (Boehringer Ingelheim International GmH, priority 2024, published 2025)
Positions count from the first letter of the chain named. Where two headings read alike, the source gives them in different places. Each block holds one molecule with its values, some of them ahead of it. *1 amine or outer side, *2 acyl side, *3 side chain or, on linkers, in order; H or OH if unused. Where no end group is shown, it is not given here. Side-chain parts run from the residue outwards. [ ]: non-standard residue; d: D form. The star is where a group is joined. C18 diacid = O=C(O)CCCCCCCCCCCCCCCCC(=O)*; γGlu = O=C(O)[C@H](CCC(=O)[*:2])N[*:1]; εLys = N[C@@H](CCCCN[*:1])C(=O)[*:2]; Aib = CC(C)(N)C(=O)O

Key:
hGLP1R = target: T1, hGLP1R (Homo sapiens, UniProt P43220); experiment: hGLP1R CreLuc assay in 0.5% and 100% plasma (HEK-293 CRE-luciferase reporter cells); assay type: cell-based; conditions: HEK-293 reporter cells
T1 construct: expressed in transfected cells; host or cells: HEK-293 CRE-luciferase reporter cells

hNPY2R = target: T2, hNPY2R (Homo sapiens, UniProt P49146); experiment: hNPY2R CreLuc assay in 0.5% and 100% plasma (HEK-293 CRE-luciferase reporter cells); assay type: cell-based; conditions: 0.5% human plasma, HEK-293 reporter cells, read-out: hNPY2R 0.5% hP
T2 construct: expressed in transfected cells; host or cells: HEK-293 CRE-luciferase reporter cells
T2 sequence (P49146 1-381): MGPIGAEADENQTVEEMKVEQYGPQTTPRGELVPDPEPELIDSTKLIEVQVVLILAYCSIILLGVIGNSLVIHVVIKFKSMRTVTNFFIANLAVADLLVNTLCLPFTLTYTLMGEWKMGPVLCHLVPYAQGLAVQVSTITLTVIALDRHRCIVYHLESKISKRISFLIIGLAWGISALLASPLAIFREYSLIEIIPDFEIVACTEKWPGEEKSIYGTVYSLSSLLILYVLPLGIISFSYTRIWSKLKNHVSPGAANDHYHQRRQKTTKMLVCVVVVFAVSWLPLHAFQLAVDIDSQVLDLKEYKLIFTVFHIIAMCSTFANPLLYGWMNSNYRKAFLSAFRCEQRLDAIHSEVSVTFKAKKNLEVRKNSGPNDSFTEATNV

Normal NMRI Mice = experiment: Effect on acute food intake in normal NMRI mice; assay type: in vivo; conditions: male NMRI mice, single subcutaneous dose 100 nmol/kg, 24 hours food intake normalized to vehicle group
Summary of the method: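 Male NMRI mice (n=8, ≥6 weeks), food locked 8 h before dark phase, given a single subcutaneous dose of peptide 1 h before lights-off. Food intake logged hourly over 24 h by automated HM2 monitoring; vehicle 50 mM phosphate pH 7.4 with 3.5% mannitol.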

[1] = Solubility in 0.1 M phosphate buffer at pH 7; assay type: physicochemical; conditions: 0.1 M phosphate buffer at pH 7, 10 mg/mL final peptide concentration, shaking 2 hours at room temperature, peptides as TFA-salts; measured sample pH 6.5-7.0
hGIPR = target: T3, hGIPR (Homo sapiens, UniProt P48546); experiment: hGIPR CreLuc assay in 0.5% and 100% plasma (CHO CRE-luciferase reporter cells); assay type: cell-based
T3 construct: expressed in transfected cells; host or cells: CHO CRE-luciferase reporter cells
T3 sequence (P48546 22-466): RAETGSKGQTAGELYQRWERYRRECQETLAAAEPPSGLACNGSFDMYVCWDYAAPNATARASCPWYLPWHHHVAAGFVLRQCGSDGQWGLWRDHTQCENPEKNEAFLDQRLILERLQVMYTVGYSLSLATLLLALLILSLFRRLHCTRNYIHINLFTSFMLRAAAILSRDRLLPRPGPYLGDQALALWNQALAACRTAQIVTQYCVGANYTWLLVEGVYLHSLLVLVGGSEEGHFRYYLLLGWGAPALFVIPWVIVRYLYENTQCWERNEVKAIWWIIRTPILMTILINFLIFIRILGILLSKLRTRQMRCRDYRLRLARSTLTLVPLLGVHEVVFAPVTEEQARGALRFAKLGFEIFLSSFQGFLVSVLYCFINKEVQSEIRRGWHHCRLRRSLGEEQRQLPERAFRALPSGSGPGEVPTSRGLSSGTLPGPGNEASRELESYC

[2] = Mouse PK after intravenous application; assay type: in vivo; conditions: plasma, male NMRI mice, intravenous 30-60 nmol/kg, non-compartmental analysis
Summary of the method: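 Male NMRI mice (30–40 g) dosed 30-60 nmol/kg by tail vein in 50 mM phosphate buffer pH 7.4/3.5% mannitol. Saphenous EDTA blood sampled from conscious animals up to 56 h; plasma peptide quantified by LC-MS. Parameters from non-compartmental analysis of individual profiles.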

[3] = target: T4, human neuropeptide Y2 receptor (human, UniProt P49146 1-381); experiment: cell-based or functional assay
T4 sequence (looked up): T2 sequence (P49146 1-381)

human GIP receptor = target: T5, human GIP receptor (human, UniProt P48546 22-466); experiment: cell-based or functional assay
T5 sequence (looked up): T3 sequence (P48546 22-466)

human GLP-1 receptor = human GLP-1 receptor (human, UniProt P43220 24-463); experiment: cell-based or functional assay
[4] = 100% human plasma, read-out: hGLP1R 100% hP

T1 sequence (P43220 24-463): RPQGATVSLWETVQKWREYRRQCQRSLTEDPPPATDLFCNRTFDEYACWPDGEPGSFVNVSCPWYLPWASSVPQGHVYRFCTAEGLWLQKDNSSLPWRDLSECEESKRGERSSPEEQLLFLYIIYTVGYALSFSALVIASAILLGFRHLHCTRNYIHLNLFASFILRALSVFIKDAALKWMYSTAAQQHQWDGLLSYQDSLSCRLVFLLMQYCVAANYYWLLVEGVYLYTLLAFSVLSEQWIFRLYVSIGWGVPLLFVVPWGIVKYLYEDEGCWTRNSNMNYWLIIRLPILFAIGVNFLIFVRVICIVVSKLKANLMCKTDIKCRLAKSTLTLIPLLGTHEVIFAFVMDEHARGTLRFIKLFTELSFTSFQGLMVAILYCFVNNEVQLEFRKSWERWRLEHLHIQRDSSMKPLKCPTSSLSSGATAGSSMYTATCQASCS

EC50 (hGLP1R; [4]): 0.3 nM | EC50 (hNPY2R): 7.2 nM | solubility at 2 h [1]: 8900 µg/mL | EC50 (hGIPR; 100% human plasma, read-out: hGIPR 100% hP): 0.5 nM | MRT [2]: 6.7 h
Molecule: CC[C@H](C)[C@H](NC(=O)[C@H](Cc1ccccc1)NC(=O)[C@H](C)NC(=O)C(C)(C)NC(=O)[C@H](CCC(N)=O)NC(=O)[C@H](C)NC(=O)[C@H](CCC(N)=O)NC(=O)[C@H](CCCCN)NC(=O)[C@H](CCC(=O)O)NC(=O)[C@H](CC(C)C)NC(=O)[C@](C)(CC(C)C)NC(=O)[C@@H](NC(=O)[C@H](CO)NC(=O)[C@H](Cc1ccc(O)cc1)NC(=O)[C@H](CC(=O)O)NC(=O)[C@H](CO)NC(=O)[C@@H](NC(=O)[C@H](Cc1ccccc1)NC(=O)[C@@H](NC(=O)CNC(=O)[C@H](CCC(=O)O)NC(=O)C(C)(C)NC(=O)[C@@H](N)Cc1ccc(O)cc1)[C@@H](C)O)[C@@H](C)O)[C@@H](C)CC)C(=O)N[C@@H](CCCNC(=N)N)C(=O)N[C@@H](Cc1c[nH]cn1)C(=O)N[C@@H](CC(C)C)C(=O)N[C@H](C(=O)N[C@@H](CC(N)=O)C(=O)N[C@@H](CCCCNC(=O)[C@@H](N)CCCCNC(=O)CC[C@H](NC(=O)CC[C@H](NC(=O)CC[C@H](NC(=O)CC[C@H](NC(=O)CC[C@H](NC(=O)CC[C@H](NC(=O)CCCCCCCCCCCCCCCCC(=O)O)C(=O)O)C(=O)O)C(=O)O)C(=O)O)C(=O)O)C(=O)O)C(=O)NC(C)(C)C(=O)N[C@H](C(=O)N[C@@H](CCCNC(=N)N)C(=O)N[C@@H](CCC(N)=O)C(=O)N[C@@H](CCCNC(=N)N)C(=O)N[C@@H](Cc1ccc(O)cc1)C(N)=O)[C@@H](C)O)[C@@H](C)CC [Compound 76, Y-Aib-E-G-T-F-T-S-D-Y-S-I-aMeL-L-E-K-Q-A-Q-Aib-A-F-I-R-H-L-I-N-K(1,3)-Aib-T-R-Q-R-Y-NH2.C18DA-gGlu-gGlu-gGlu-gGlu-gGlu-gGlu-eLys(1,2)]
Acute Food Intake 24 hours 100 nmol/kg [% CTL] (Normal NMRI Mice): 55 % CTL

EC50 (hGLP1R; 0.5% human plasma, read-out: hGLP1R 0.5% hP): 0.4 nM | EC50 (hGLP1R; [4]): 2 nM | EC50 (hNPY2R): 9.9 nM | solubility at 2 h [1]: 6700 µg/mL | EC50 (hGIPR; 0.5% human plasma, read-out: hGIPR 0.5% hP): 0.2 nM | MRT [2]: 7.5 h
Molecule: CC[C@H](C)[C@H](NC(=O)[C@H](CC(C)C)NC(=O)[C@H](Cc1c[nH]cn1)NC(=O)[C@H](CCCNC(=N)N)NC(=O)[C@@H](NC(=O)[C@H](Cc1ccccc1)NC(=O)[C@H](C)NC(=O)C(C)(C)NC(=O)[C@H](CCC(N)=O)NC(=O)[C@H](C)NC(=O)[C@H](CCC(N)=O)NC(=O)[C@H](CCCCN)NC(=O)[C@H](CCC(=O)O)NC(=O)[C@H](CC(C)C)NC(=O)C(C)(C)NC(=O)[C@@H](NC(=O)[C@H](CO)NC(=O)[C@H](Cc1ccc(O)cc1)NC(=O)[C@H](CC(=O)O)NC(=O)[C@H](CO)NC(=O)[C@@H](NC(=O)[C@H](Cc1ccccc1)NC(=O)[C@@H](NC(=O)CNC(=O)[C@H](CCC(=O)O)NC(=O)C(C)(C)NC(=O)[C@@H](N)Cc1ccc(O)cc1)[C@@H](C)O)[C@@H](C)O)[C@@H](C)CC)C(C)C)C(=O)N[C@@H](CC(N)=O)C(=O)N[C@@H](CCCCNC(=O)[C@@H](N)CCCCNC(=O)CC[C@H](NC(=O)CC[C@H](NC(=O)CC[C@H](NC(=O)CC[C@H](NC(=O)CC[C@H](NC(=O)CC[C@H](NC(=O)CCCCCCCCCCCCCCCCC(=O)O)C(=O)O)C(=O)O)C(=O)O)C(=O)O)C(=O)O)C(=O)O)C(=O)NC(C)(C)C(=O)N[C@H](C(=O)N[C@@H](CCCNC(=N)N)C(=O)N[C@@H](CCC(N)=O)C(=O)N[C@@H](CCCNC(=N)N)C(=O)N[C@@H](Cc1ccc(O)cc1)C(N)=O)[C@@H](C)O [Compound 92, Y-Aib-E-G-T-F-T-S-D-Y-S-I-Aib-L-E-K-Q-A-Q-Aib-A-F-V-R-H-L-I-N-K(1,3)-Aib-T-R-Q-R-Y-NH2.C18DA-gGlu-gGlu-gGlu-gGlu-gGlu-gGlu-eLys(1,2)]
Acute Food Intake 24 hours 100 nmol/kg [% CTL] (Normal NMRI Mice): 58 % CTL

EC50, CreLuc luciferase reporter assay, hNPY2R 0.5% hP [3]: 9.9 nM | EC50, CreLuc luciferase reporter assay, hNPY2R 100% hP [3]: 95.3 nM | EC50, CreLuc luciferase reporter assay, hGIPR 0.5% hP (human GIP receptor): 0.4 nM
B1: Compound 171 (peptide)
peptide: YXEGTFTSDYSIXLERQAQXAFVRHLINKXTRQRY
modifications: Aib at positions 2, 13, 20 and 30; Lys 29 epsilon-amino group carries C20DA-gGlu-gGlu-gGlu-gGlu-gGlu-gGlu-eLys; C-terminal amide

EC50, CreLuc luciferase reporter assay, hNPY2R 0.5% hP [3]: 7.3 nM | EC50, CreLuc luciferase reporter assay, hNPY2R 100% hP [3]: 55.5 nM | EC50, CreLuc luciferase reporter assay, hGLP1R 0.5% hP (human GLP-1 receptor): 0.2 nM | EC50, CreLuc luciferase reporter assay, hGIPR 0.5% hP (human GIP receptor): 0.7 nM | EC50, CreLuc luciferase reporter assay, hGIPR 100% hP (human GIP receptor): 20.1 nM
B2: Compound 173 (peptide)
peptide: B1 peptide with E15D, R16K, I27L
modifications: Aib at positions 2, 13, 20 and 30; Lys 29 epsilon-amino group carries C18DA-gGlu-gGlu-gGlu-gGlu-gGlu-gGlu-eLys; C-terminal amide

EC50, CreLuc luciferase reporter assay, hNPY2R 0.5% hP [3]: 52.7 nM | EC50, CreLuc luciferase reporter assay, hNPY2R 100% hP [3]: 136 nM | EC50, CreLuc luciferase reporter assay, hGIPR 0.5% hP (human GIP receptor): 1.7 nM | EC50, CreLuc luciferase reporter assay, hGIPR 100% hP (human GIP receptor): 19.8 nM
B3: Compound 172 (peptide)
peptide: B1 peptide with R16K, X30W
modifications: Aib at positions 2, 13 and 20; Lys 29 epsilon-amino group carries C18DA-gGlu-gGlu-gGlu-gGlu-gGlu-gGlu-eLys; C-terminal amide

EC50, CreLuc luciferase reporter assay, hNPY2R 100% hP [3]: 457 nM
B4: Compound 176 (peptide)
peptide: B1 peptide with R16K
modifications: Aib at positions 2, 13, 20 and 30; Lys 29 epsilon-amino group carries C20DA-gGlu-gGlu-gGlu-gGlu-gGlu; C-terminal amide

EC50, CreLuc luciferase reporter assay, hGLP1R 0.5% hP (human GLP-1 receptor): 1 nM
Molecule: Y[Aib]EGTFTSDYSI[Aib]LEKQAQ[Aib]AFVRHLINK([γGlu-εLys-γGlu-γGlu-γGlu-γGlu-γGlu-C18 diacid])[Aib]TRQRY-NH2 (also: TFA salt) [Compound 174]
